Experimental data as given in PMC9757060 (Nucleic Acids Research, 2022).
Positions count from the first letter of the chain named. Names may count otherwise. Values belong to the molecule of their own block, whether it stands above or below them.

How the values were obtained:
Experiment in all cases: ITC
[1] = molecular target: mouse UHRF1 PHD finger (residues 304–372) (mouse) (UniProt Q8VDF2)
[2] = molecular target: T1, mouse UHRF1 PHD finger (residues 304–372) (mouse, UniProt Q8VDF2 304-372)
T1 sequence (looked up): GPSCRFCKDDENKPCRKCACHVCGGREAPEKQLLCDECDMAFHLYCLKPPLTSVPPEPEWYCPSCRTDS

[3] = molecular target: T2, mouse UHRF1 PHD finger (residues 304–372) L337A (mouse, UniProt Q8VDF2 304-372, L337A)
T2 sequence (looked up): T1 sequence (looked up) with L34A

Molecule: N-terminal tail of PAF15 (PCNA-associated factor 15) (peptide)
- Kd [1]: 3520 nM

B1: mDPPA3 residues 76–127 followed by an additional Trp (mDPPA3 76–128W) (domain or fragment, mouse)
chain: RREVQSAFPKRRVRTLLSVLKDPIAKMRRLVRIEQRQKRLEGNEFERDSEPFW
- Kd [2]: 27.7 nM
- Kd [3]: > 43000 nM

B2: mDPPA3 76–128W R104A (domain or fragment, mouse)
chain: B1 chain with R29A
- binding result [2]: binds

Now from value to molecule:

- Kd [2]: 361 nM
B3: mDPPA3 76–128W R89A (domain or fragment, mouse)
chain: B1 chain with R14A

- Kd [2]: 1080 nM
B4: mDPPA3 76–128W L91A/V94A (domain or fragment, mouse)
chain: B1 chain with L16A, V19A

- Kd [2]: 45 nM
Molecule: KRRVRTLLSVLKDPIAKMRRLVRIEQRQKRLEGN (peptide, UniProt Q8QZY3 85-118, looked up) [mDPPA3 residues 85–118]
